From paper PMC11574045, “A cofactor-induced repressive type of transcription factor condensation can be induced by synthetic peptides to suppress tumorigenesis” (The EMBO Journal, 2024)

System: HEK293FT cells transfected with TF library
Experiment: Screening of TF condensates based on fluorescent puncta
Type: cell-based
Settings: Figure 1B numerical data; TF library screen, one value per transcriptional factor
How it was run: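 Each TF construct was introduced into HEK293FT cells using PEI at 4.8 μg/ml; glucose deprivation versus normal medium lasted 12 h. Automated confocal-style imaging of tagged TF staining, 50 fields per well, gave the puncta data.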

| Molecule | Z score of condensed fraction |
| --- | --- |
| NR2F6 (protein, UniProt P10588 1-404, looked up) Nuclear receptor subfamily 2 …: MAMVTGGWGGPGGDTNGVDKAGGYPRAAEDDSASPPGAASDAEPGDEERPGLQVDCVVCGDKSSGKHYGVFTCEGCKSFFKRSIRRNLSYTCRSNRDCQIDQHHRNQCQYCRLKKCFRVGMRKEAVQRGRIPHSLPGAVAASSGSPPGSALAAVASGGDLFPGQPVSELIAQLLRAEPYPAAAGRFGAGGGAAGAVLGIDNVCELAARLLFSTVEWARHAPFFPELPVADQVALLRLSWSELFVLNAAQAALPLHTAPLLAAAGLHAAPMAAERAVAFMDQVRAFQEQVDKLGRLQVDSAEYGCLKAIALFTPDACGLSDPAHVESLQEKAQVALTEYVRAQYPSQPQRFGRLLLRLPALRAVPASLISQLFFMRLVGKTPIETLIRDMLLSGSTFNWPYGSGQ | 2.586 |
| NR1I3/CAR1 (protein, UniProt Q14994 1-352, looked up) Nuclear receptor subfamily 1 …: MASREDELRNCVVCGDQATGYHFNALTCEGCKGFFRRTVSKSIGPTCPFAGSCEVSKTQRRHCPACRLQKCLDAGMRKDMILSAEALALRRAKQAQRRAQQTPVQLSKEQEELIRTLLGAHTRHMGTMFEQFVQFRPPAHLFIHHQPLPTLAPVLPLVTHFADINTFMVLQVIKFTKDLPVFRSLPIEDQISLLKGAAVEICHIVLNTTFCLQTQNFLCGPLRYTIEDGARVSPTVGFQVEFLELLFHFHGTLRKLQLQEPEYVLLAAMALFSPDRPGVTQRDEIDQLQEEMALTLQSYIKGQQRRPRDRFLYAKLLGLLAELRSINEAYGYQIQHIQGLSAMMPLLQEICS | -0.6844 |
| NR2C1/TR2A (protein, UniProt Q505F1 1-590, looked up) Nuclear receptor subfamily 2 …: MATIEEIAHQIIDQQMGEIVTEQQTGQKIQIVTALDHSTQGKQFILANHEGSTPGKVFLTTPDAAGVNQLFFTSPDLSAPHLQLLTEKSPDQGPNKVFDLCVVCGDKASGRHYGAITCEGCKGFFKRSIRKNLVYSCRGSKDCVINKHHRNRCQYCRLQRCIAFGMKQDSVQCERKPIEVSREKSSNCAASTEKIYIRKDLRSPLAATPTFVTDSETARSAGLLDSGMFVNIHPSGIKTEPAMLMAPDKAESCQGDLSTLASVVTSLANLGKAKDLSHCGGDMPVVQSLRNGDTSFGAFHHDIQTNGDVSRAFDTLAKALTPGESSACQSPEEGMEGSPHLIAGEPSFVEKEGPLLSESHVAFRLTMPSPMPEYLNVHYIGESASRLLFLSMHWALSIPSFQALGQENSISLVKAYWNELFTLGLAQCWQVMNVATILATFVNCLHSSLQQDKMSPERRKSLMEHIFKLQEFCNSMVKLCIDGHEYAYLKAIVLFSPDHPGLENMELIERFQEKAYVEFQDYITRTYPDDTYRLSRLLLRLPALRLMNATITEELFFKGLIGNVRIDSVIPHILKMEPADYNSQIIGHSL | -0.6816 |
| NR3C2 (protein, UniProt P08235 1-984, looked up) Mineralocorticoid receptor: METKGYHSLPEGLDMERRWGQVSQAVERSSLGPTERTDENNYMEIVNVSCVSGAIPNNSTQGSSKEKQELLPCLQQDNNRPGILTSDIKTELESKELSATVAESMGLYMDSVRDADYSYEQQNQQGSMSPAKIYQNVEQLVKFYKGNGHRPSTLSCVNTPLRSFMSDSGSSVNGGVMRAVVKSPIMCHEKSPSVCSPLNMTSSVCSPAGINSVSSTTASFGSFPVHSPITQGTPLTCSPNVENRGSRSHSPAHASNVGSPLSSPLSSMKSSISSPPSHCSVKSPVSSPNNVTLRSSVSSPANINNSRCSVSSPSNTNNRSTLSSPAASTVGSICSPVNNAFSYTASGTSAGSSTLRDVVPSPDTQEKGAQEVPFPKTEEVESAISNGVTGQLNIVQYIKPEPDGAFSSSCLGGNSKINSDSSFSVPIKQESTKHSCSGTSFKGNPTVNPFPFMDGSYFSFMDDKDYYSLSGILGPPVPGFDGNCEGSGFPVGIKQEPDDGSYYPEASIPSSAIVGVNSGGQSFHYRIGAQGTISLSRSARDQSFQHLSSFPPVNTLVESWKSHGDLSSRRSDGYPVLEYIPENVSSSTLRSVSTGSSRPSKICLVCGDEASGCHYGVVTCGSCKVFFKRAVEGQHNYLCAGRNDCIIDKIRRKNCPACRLQKCLQAGMNLGARKSKKLGKLKGIHEEQPQQQQPPPPPPPPQSPEEGTTYIAPAKEPSVNTALVPQLSTISRALTPSPVMVLENIEPEIVYAGYDSSKPDTAENLLSTLNRLAGKQMIQVVKWAKVLPGFKNLPLEDQITLIQYSWMCLSSFALSWRSYKHTNSQFLYFAPDLVFNEEKMHQSAMYELCQGMHQISLQFVRLQLTFEEYTIMKVLLLLSTIPKDGLKSQAAFEEMRTNYIKELRKMVTKCPNNSGQSWQRFYQLTKLLDSMHDLVSDLLEFCFYTFRESHALKVEFPAMLVEIISDQLPKVESGNAKPLYFHRK | -0.7191 |
| NRIP1 (protein, UniProt P48552 1-1158, looked up) Nuclear receptor-interacting …: MTHGEELGSDVHQDSIVLTYLEGLLMHQAAGGSGTAVDKKSAGHNEEDQNFNISGSAFPTCQSNGPVLNTHTYQGSGMLHLKKARLLQSSEDWNAAKRKRLSDSIMNLNVKKEALLAGMVDSVPKGKQDSTLLASLLQSFSSRLQTVALSQQIRQSLKEQGYALSHDSLKVEKDLRCYGVASSHLKTLLKKSKVKDQKPDTNLPDVTKNLIRDRFAESPHHVGQSGTKVMSEPLSCAARLQAVASMVEKRASPATSPKPSVACSQLALLLSSEAHLQQYSREHALKTQNANQAASERLAAMARLQENGQKDVGSYQLPKGMSSHLNGQARTSSSKLMASKSSATVFQNPMGIIPSSPKNAGYKNSLERNNIKQAANNSLLLHLLKSQTIPKPMNGHSHSERGSIFEESSTPTTIDEYSDNNPSFTDDSSGDESSYSNCVPIDLSCKHRTEKSESDQPVSLDNFTQSLLNTWDPKVPDVDIKEDQDTSKNSKLNSHQKVTLLQLLLGHKNEENVEKNTSPQGVHNDVSKFNTQNYARTSVIESPSTNRTTPVSTPPLLTSSKAGSPINLSQHSLVIKWNSPPYVCSTQSEKLTNTASNHSMDLTKSKDPPGEKPAQNEGAQNSATFSASKLLQNLAQCGMQSSMSVEEQRPSKQLLTGNTDKPIGMIDRLNSPLLSNKTNAVEENKAFSSQPTGPEPGLSGSEIENLLERRTVLQLLLGNPNKGKSEKKEKTPLRDESTQEHSERALSEQILMVKIKSEPCDDLQIPNTNVHLSHDAKSAPFLGMAPAVQRSAPALPVSEDFKSEPVSPQDFSFSKNGLLSRLLRQNQDSYLADDSDRSHRNNEMALLESKNLCMVPKKRKLYTEPLENPFKKMKNNIVDAANNHSAPEVLYGSLLNQEELKFSRNDLEFKYPAGHGSASESEHRSWARESKSFNVLKQLLLSENCVRDLSPHRSNSVADSKKKGHKNNVTNSKPEFSISSLNGLMYSSTQPSSCMDNRTFSYPGVVKTPVSPTFPEHLGCAGSRPESGLLNGCSMPSEKGPIKWVITDAEKNEYEKDSPRLTKTNPILYYMLQKGGNSVTSRETQDKDIWREASSAESVSQVTAKEELLPTAETKASFFNLRSPYNSHMGNNASRPHSANGEVYGLLGSVLTIKKESE | 2.676 |
| NR5A1/FTZ-F1A (protein, UniProt P33242 1-462, looked up) Steroidogenic factor 1: MDYSYDEDLDELCPVCGDKVSGYHYGLLTCESCKGFFKRTVQNNKHYTCTESQSCKIDKTQRKRCPFCRFQKCLTVGMRLEAVRADRMRGGRNKFGPMYKRDRALKQQKKAQIRANGFKLETGPPMGVPPPPPPPPDYMLPPSLHAPEPKALVSGPPSGPLGDFGAPSLPMAVPGPHGPLAGYLYPAFSNRTIKSEYPEPYASPPQQPGPPYSYPEPFSGGPNVPELILQLLQLEPEEDQVRARIVGCLQEPAKSRSDQPAPFSLLCRMADQTFISIVDWARRCMVFKELEVADQMTLLQNCWSELLVLDHIYRQVQYGKEDSILLVTGQEVELSTVAVQAGSLLHSLVLRAQELVLQLHALQLDRQEFVCLKFLILFSLDVKFLNNHSLVKDAQEKANAALLDYTLCHYPHCGDKFQQLLLCLVEVRALSMQAKEYLYHKHLGNEMPRNNLLIEMLQAKQT | -0.1726 |
| ATF7 (protein, UniProt P17544 1-483, looked up) Cyclic AMP-dependent …: MGDDRPFVCNAPGCGQRFTNEDHLAVHKHKHEMTLKFGPARTDSVIIADQTPTPTRFLKNCEEVGLFNELASSFEHEFKKAADEDEKKAAAGPLDMSLPSTPDIKIKEEEPVEVDSSPPDSPASSPCSPPLKEKEVTPKPVLISTPTPTIVRPGSLPLHLGYDPLHPTLPSPTSVITQAPPSNRQMGSPTGSLPLVMHLANGQTMPVLPGPPVQMPSVISLARPVSMVPNIPGIPGPPVNSSGSISPSGHPIPSEAKMRLKATLTHQVSSINGGCGMVVGTASTMVTARPEQSQILIQHPDAPSPAQPQVSPAQPTPSTGGRRRRTVDEDPDERRQRFLERNRAAASRCRQKRKLWVSSLEKKAEELTSQNIQLSNEVTLLRNEVAQLKQLLLAHKDCPVTALQKKTQGYLESPKESSEPTGSPAPVIQHSSATAPSNGLSVRSAAEAVATSVLTQMASQRTELSMPIQSHVIMTPQSQSAGR | -0.2253 |
| NR2B3/RXRG (protein, UniProt P28705 1-463, looked up) Retinoic acid receptor …: MYGNYSHFMKFPTGFGGSPGHTGSTSMSPSVALPTGKPMDSHPSYTDTPVSAPRTLSAVGTPLNALGSPYRVITSAMGPPSGALAAPPGINLVAPPSSQLNVVNSVSSSEDIKPLPGLPGIGNMNYPSTSPGSLVKHICAICGDRSSGKHYGVYSCEGCKGFFKRTIRKDLIYTCRDNKDCLIDKRQRNRCQYCRYQKCLVMGMKREAVQEERQRSRERAESEAECASSSHEDMPVERILEAELAVEPKTESYGDMNVENSTNDPVTNICHAADKQLFTLVEWAKRIPHFSDLTLEDQVILLRAGWNELLIASFSHRSVSVQDGILLATGLHVHRSSAHSAGVGSIFDRVLTELVSKMKDMQMDKSELGCLRAIVLFNPDAKGLSNPSEVETLREKVYATLEAYTKQKYPEQPGRFAKLLLRLPALRSIGLKCLEHLFFFKLIGDTPIDSFLMEMLETPLQIT | -0.7251 |
